Key:
ovine COX-1 (oCOX-1) = biological target: T1, ovine COX-1 (oCOX-1) (Ovis aries, UniProt P05979); conditions: compared with AA; cited from earlier work
T1 construct: COX-1 was purified from ram seminal vesicles as previously described; tissue Oxford Biomedical Research; host or cells: ram seminal vesicles
T1 sequence (P05979 25-600): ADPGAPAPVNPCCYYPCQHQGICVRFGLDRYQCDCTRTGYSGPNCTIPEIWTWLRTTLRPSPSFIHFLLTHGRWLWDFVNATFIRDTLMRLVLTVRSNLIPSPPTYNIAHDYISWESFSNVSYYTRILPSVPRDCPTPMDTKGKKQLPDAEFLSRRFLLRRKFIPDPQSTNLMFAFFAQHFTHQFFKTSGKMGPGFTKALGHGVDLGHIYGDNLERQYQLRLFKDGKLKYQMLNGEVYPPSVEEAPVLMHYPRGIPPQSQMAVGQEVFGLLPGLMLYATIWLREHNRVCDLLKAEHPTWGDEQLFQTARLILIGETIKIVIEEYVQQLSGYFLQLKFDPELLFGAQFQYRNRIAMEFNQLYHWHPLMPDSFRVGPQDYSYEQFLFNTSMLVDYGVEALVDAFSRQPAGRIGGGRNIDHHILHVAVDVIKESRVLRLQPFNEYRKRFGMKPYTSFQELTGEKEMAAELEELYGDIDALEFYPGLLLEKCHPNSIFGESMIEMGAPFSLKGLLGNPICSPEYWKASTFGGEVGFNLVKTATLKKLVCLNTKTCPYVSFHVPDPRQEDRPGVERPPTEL

[1] = mice [16,17]; cited from earlier work
[2] = rats [16,17]; cited from earlier work
[3] = substrate: CCCCC/C=C\C/C=C\C/C=C\C/C=C\CCCC(=O)O; assay: Steady-state kinetics of COX-2 mediated oxygenation (oxygraph O2 uptake); assay type: biochemical, murine; conditions: other: 50 nM COX-2, 100 mM Tris-HCl, 500 μM phenol
Description: (§1) Enzymology: COX-1 was purified from ram seminal vesicles as previously described. Site-directed mutagenesis of COX-2 was performed as described previously. Recombinant COX-2 enzymes were expressed in Sf-9 insect cells and purified by ion-exchange chromatography and gel filtration as previously described. Apo-enzymes were reconstituted with hematin prior to activity assays. […] COX activity was quantified as previously described. Initial reaction velocity data were obtained from the linear portion of the oxygen uptake curves. Oxygraph data were analyzed by nonlinear regression with Enzyme Kinetics 1.5 software (Trinity Software, Campton, N.H.).

[4] = substrate: CCCCC/C=C\C/C=C\C/C=C\C/C=C\CCCCNCC(=O)O; assay: as above; assay type: biochemical, murine; conditions: other: 50 nM COX-2, 100 mM Tris-HCl, 500 μM phenol
Description: as §1

Molecule: CCCCC/C=C\C/C=C\C/C=C\C/C=C\CCCC(=O)OC(CO)CO [2-AG, 2-arachidonlyglycerol]
- metabolism by COX-1 (ovine COX-1 (oCOX-1)): much lesser extent than AA

Molecule: CCCCC/C=C\C/C=C\C/C=C\C/C=C\CCCC(=O)NCCO [AEA, arachidonyl ethanolamide]
- metabolism by COX-1 (ovine COX-1 (oCOX-1)): much lesser extent than AA

Molecule: CCCCC/C=C\C/C=C\C/C=C\C/C=C\CCCC(=O)NCCCC(=O)O [δ-arachidonyl aminobutuyic acid]
- analgesia [1]: induce analgesia
- formalin-induced tonic inflammatory pain [2]: suppresses formalin-induced tonic inflammatory pain

B1: Murine COX-2 (Mus musculus) (protein)
chain: ANPCCSNPCQNRGECMSTGFDQYKCDCTRTGFYGENCTTPEFLTRIKLLLKPTPNTVHYILTHFKGVWNIVNNIPFLRSLIMKYVLTSRSYLIDSPPTYNVHYGYKSWEAFSNLSYYTRALPPVADDCPTPMGVKGNKELPDSKEVLEKVLLRREFIPDPQGSNMMFAFFAQHFTHQFFKTDHKRGPGFTRGLGHGVDLNHIYGETLDRQHKLRLFKDGKLKYQVIGGEVYPPTVKDTQVEMIYPPHIPENLQFAVGQEVFGLVPGLMMYATIWLREHNRVCDILKQEHPEWGDEQLFQTSRLILIGETIKIVIEDYVQHLSGYHFKLKFDPELLFNQQFQYQNRIASEFNTLYHWHPLLPDTFNIEDQEYSFKQFLYNNSILLEHGLTQFVESFTRQIAGRVAGGRNVPIAVQAVAKASIDQSREMKYQSLNEYRKRFSLKPYTSFEELTGEKEMAAELKALYSDIDVMELYPALLVEKPRPDAIFGETMVELGAPFSLKGLMGNPICSPQYWKPSTFGGEVGFKIINTASIQSLICNNVKGCPFTSFNVQDPQPTKTATINASASHSRLDDINPTVLIKRRSTEL
notes: made in house; host or cells: Sf-9 insect cells
- Km [3]: 3.3 ± 1.0 µM
- kcat [3]: 16.6 ± 1.7 s⁻¹
- kcat/Km [3]: 5.08e+06 M⁻¹ s⁻¹
- Km [4]: 11.7 ± 1.4 µM
- kcat [4]: 6.3 ± 1.1 s⁻¹
- kcat/Km [4]: 540000 M⁻¹ s⁻¹
